The results in this text go back to patent US20220112292A1 (ALETA BIOTHERAPEUTICS, published 2022).

For assay [1], the target named is T1, CLL-1 on U937 cells (human, UniProt Q5QGZ9 1-265).
T1 construct: whole, on cells; also called CLEC12A; Clec12A
T1 sequence: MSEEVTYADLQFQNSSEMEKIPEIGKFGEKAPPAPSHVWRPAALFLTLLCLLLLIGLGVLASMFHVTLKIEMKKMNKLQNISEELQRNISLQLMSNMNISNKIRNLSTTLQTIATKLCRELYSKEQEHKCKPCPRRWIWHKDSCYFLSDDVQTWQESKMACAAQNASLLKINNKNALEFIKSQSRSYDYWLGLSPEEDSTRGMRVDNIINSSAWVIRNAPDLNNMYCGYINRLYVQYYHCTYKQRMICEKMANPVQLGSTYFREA
As to the kind of experiment: flow cytometry on U937 cells, clone lysate, anti-cMyc-PE (Table 3 summary). (In flow cytometry, cells or beads pass a laser one at a time.)

The target in assay [2] is T2, Clec12A-His (Sino Biological, 11896-H07H) (human, UniProt Q5QGZ9 65-265).
T2 construct: Bought soluble protein; also called soluble CLEC12a-His; Sino Biological Clec12A
T2 chain: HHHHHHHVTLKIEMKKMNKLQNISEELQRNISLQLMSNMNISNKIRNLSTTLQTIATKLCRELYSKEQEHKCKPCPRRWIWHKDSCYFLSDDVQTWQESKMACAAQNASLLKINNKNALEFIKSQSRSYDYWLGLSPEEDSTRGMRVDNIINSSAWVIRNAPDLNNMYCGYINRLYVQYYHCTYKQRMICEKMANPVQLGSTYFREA
In words: ELISA on plate coated with CLEC12a-His; unlabeled VHH at 10 ug/ml first, biotinylated VHH at 0.2 ug/ml second, streptavidin-HRP. As for the experimental part:
ELISAs were used to determine if the VHH clones recognized distinct or similar epitopes. […] The plate was blocked with 0.3% nonfat milk in TBS (200 ul/well) for 1 hr at RT. The plates were washed 3× with 1×TBST (0.1 M Tris, 0.5 M NaCl and 0.05% Tween-20). The test anti-CLEC12a VHHs were added at 10 ug/ml horizontally across the plate, 100 ul per well and incubated for 1 h. Without washing, the test anti-CLEC12a biotinylated VHHs were added at 0.2 ug/ml vertically down the plate, 100 ul per well and incubate for 1 h. After being washed 3× with 1×TBST, HRP-conjugated streptavidin (Pierce #21130) at 1:2000 (100 ul/well) was added, followed by incubation at RT in the dark for 1 hr. For detection, 1-Step Ultra TMB-ELISA reagent (Thermo Fisher #34028) was added at 100 ul per well and read at 450 nm. […] The 1H1 VHH was distinct from these, and 2C2 was intermediate. Results are depicted in FIGS. 7A-7D.
(In general: ELISA stands for enzyme-linked immunosorbent assay.)

Assay [3] addresses T1, CLL-1 on U937 cells. As to the kind of experiment: flow cytometry on U937 cells, VHH at 3 ug/ml, detected with a-His-PE; a-His-PE alone 1.1% and 5,576.5, unstained 0.6% and 5,793.5. As for the experimental part:
U937 cell binding by VHH clones was assessed. Briefly, the method included: U937 cells (2.5×10\hat{ }5) were Fc blocked (human Fc block, BD Cat. #BDB564220) for 10 min at room temperature, then washed once with FACS buffer (PBS+1% BSA+0.1% Sodium Azide) by spinning at 500G for 2 min; VHH clones (3 μg/ml as final conc) in FACS buffer were added to the cell pellets and incubated for 30 min at 4° C., then washed twice with FACS buffer by spinning at 500G for 2 min; anti-His-PE (R&D Systems, Cat. #IC050P) was added to cells; the mixture was incubated for 30 min at 4° C. and washed twice with FACS buffer by spinning at 500G for 2 min; 1% PFA (Paraformaldehyde) in PBS was added to cell pellet to fix the cells, followed by FACS analysis. VHH clones tested: 1B5: stock=1.6 mg/ml; 1H1: stock=1.9 mg/ml; 1G6: stock=1.1 mg/ml; 2F3: stock=1.45 mg/ml; 2F5: stock=0.5 mg/ml; 2H3: stock=2 mg/ml. As shown in FIGS. 2A-2C, binding of clones 1H1, 1G6, 2F5 and 2H3 to U937 cells was detected with anti-His-PE; very little binding of clones 1B5 and 2F3 to U937 cells could be detected by anti-His-PE.

Assay [4] addresses T1, CLL-1 on U937 cells. In words: flow cytometry on U937 cells, % binding against ng/ml, detected with a-His-PE; EC50 of the fitted curve; the curve of 1H1 reaches about 70% at 3000 ng/ml without a plateau. As for the experimental part:
(§1) U937 cell binding by VHH clones was assessed using varying doses to determine EC50s. Briefly, the method included: VHH clones (3 ug/ml as starting conc./test, with 3× serial dilutions) in FACS buffer were added to Fc blocked U937 or 293T-CLL1 cells (2.5×10\hat{ }5), the mixtures were incubated for 30 min at 4° C., then washed twice with FACS buffer by spinning at 500G for 2 min; anti-His-PE was added to cells, the mixture was incubated for 30 min at 4° C. and washed twice with FACS buffer by spinning at 500G for 2 min; 1% PFA (Paraformaldehyde) in PBS was added to cell pellet to fix the cells, followed by FACS analysis. VHH clones tested: 1B5: stock=1.6 mg/ml; 1H1: stock=1.9 mg/ml; 1G6: stock=1.1 mg/ml; 2F3: stock=1.45 mg/ml; 2F5: stock=0.5 mg/ml; 2H3: stock=2 mg/ml.

Assay [5] addresses T1, CLL-1 on U937 cells. In words: flow cytometry on U937 cells, 3x serial dilutions from 3 ug/ml, anti-His-PE. The method, then:
as §1

Assay [6] concerns the target T1, CLL-1 on U937 cells. As to the kind of experiment: flow cytometry on U937 cells, VHH in 3-fold dilutions, detected with a-His-PE; percent of cells positive. The method, then:
as §1

Assay [7] deals with T1, CLL-1 on U937 cells. As to the kind of experiment: flow cytometry on U937 cells, % binding against ng/ml, detected with a-His-PE; EC50 of the fitted curve. The method, then: as §1

Positions count from the first letter of the chain named.

One may read the EC50 as the concentration that produces a half-maximal response. High values mean a less potent agent, low ones a more potent agent.

B1: VHH clone 1D2 (VHH)
VHH: QVQLQQSGGGLVQPGGSLRLSCAASGFAFDDYAMIWVRQGPGKGLEWVSSISWNGGGTYYAESIVGRFTVSRDNAKKMVYLQMNGLKSEDTAMYYCVKLVDSGWYSAYDYWGQGTQVTVSS
notes: Includes myc and His tags
As to B1, the “% FACS positive” value in assay [1] amounted to 14.6%.

B2: VHH clone 1H1 (VHH)
VHH: QVQLQESGGGLVQPGGSLRLSCAASGFTFNSYAMTWVRQAPGKGLEWVSDINSGGGSTNYADSVKGRFTISRDNAKNTLYLQMNSLKPEDTAVYYCATELRGSDYYRGPIREYAYWGQGTLVTVSS
notes: includes myc and His tags; also called 2F4
Consider B2, for which the binding result in assay [2] is “binds”. In assay [3], the “% of This Plot (R3 PE+)” value was 88.6% and the “Mean FL2-A (R3 gate)” value turned out to be 6730. In assay [4], it took 1370 ng/mL to reach a half-maximal effect (EC50). Besides, the “% FACS positive” value in assay [1] stood at 10.8%. The molecule further displayed an EC50 in assay [5] of 81 nM. Besides, in assay [6], the “% binding at 1.4 ng/ml” value amounted to 0.6%, the “% binding at 4.1 ng/ml” value is 0.7%, the “% binding at 12.3 ng/ml” value turned out to be 0.7% and the “% binding at 37.0 ng/ml” value was 0.9%. In assay [6], the “% binding at 111.1 ng/ml” value was found to be 2.1%, the “% binding at 333.3 ng/ml” value was 10.4%, the “% binding at 1000 ng/ml” value came to 35.7% and the “% binding at 3000 ng/ml” value is 71%.

B3: VHH clone 2G10 (VHH)
VHH: QVQLQQSGGGLVQAGGSLRLSCAASGSIFSINAMGWYRQAPGKRREMVAVVSRFGETTYTGSVKGRFTISRINRNNTVFLQMNRLKPEDTAVYYCNARIRGNYGSRIDYWGQGTQVTVSS
notes: Includes myc and His tags
In the case of B3, the “% FACS positive” value in assay [1] was 59.7%.

B4: VHH clone 2A8 (VHH)
VHH: QVQLQAFGGGMVQAGESLRLSCVASGNDISGSAMAWYRAHLGAERELVAVDAPRERPFYIDPVIGRFTISRDDRNKMLYLQMNDLRPDDTATYWCGPSLRTFHGREWYRPPWFTSWGQGTQVTVSS
notes: Includes myc and His tags
B4: the “% FACS positive” value in assay [1] came to 40.1%.

B5: VHH clone 1B11 (VHH)
VHH: AVQLQESGGGLVQAGGSLRLSCAASGSDRSINVMNWYRQAPGKQRELVAAITSGGTTNYAQSVKGRVTISRDSAKNTVYLQMNSLKPEDTAVYFCKADTRWGGMYWGPGTQVTVSS
notes: Includes myc and His tags
B5: the “% FACS positive” value in assay [1] came to 77.8%.

B6: VHH clone 1A10 (VHH)
VHH: QVQLQESGGGLVQVGESLRLSCVVSGDTRSINLMGWYRQAPGKQRELVAACASDGNTYYADSVKGRFTISRDNAEKTVYLQMNNLKPDDTAVYYCDANSRGNYYSGQGTLVTVSS
notes: Includes myc and His tags
In the case of B6, the binding result in assay [2] is given as “binds”. Moreover, the “% FACS positive” value in assay [1] stood at 84.9%.

B7: VHH clone 1B5 (VHH)
VHH: QVQLQESGGGLVQAGGSLRLSCVVSGATSNVNAMGWYRQAPGKERELVAAISSGGSTSYRDSVKGRFTISRDNAKNTLYLQMNSLKPEDTAMYYCAAQDWATEGYEYDYWGQGTLVTVSS
notes: Includes myc and His tags
With B7, in assay [3], the “% of This Plot (R3 PE+)” value was 2.3% and the “Mean FL2-A (R3 gate)” value was 4130.

B8: VHH clone 2F3 (VHH)
VHH: QVQLQAFGGGLVQPGGSLRLSCVVSGTMFSGKDVNWLRQAPGKHVEVVATVSSDGGTDYADFVKGRFTISRDDAKNTVNLQMNSLEPEDTANYMCHFLWGRHYWGQGTQVTVSS
notes: Includes myc and His tags
B8: in assay [3], the “% of This Plot (R3 PE+)” value amounted to 12.4% and the “Mean FL2-A (R3 gate)” value worked out at 3570.

B9: VHH clone 1B1 (VHH)
VHH: QVQLQESGGGLVQAGGSLRLSCAASGSIFAINEINLMGWYRQAPGKQRELVAACASDGNTYYADSVKGRFTISRDNAEKTVYLQMNNLKPDDTAVYYCDANSRGNYYSGQGTQVTVSS
notes: also called 2A6; 2A10
As to B9, the binding result in assay [2] is given as “binds”.

B10: VHH clone 2C8 (VHH)
VHH: B9 VHH with Q5V, Q113L
notes: Includes myc and His tags
Consider B10, for which the “% FACS positive” value in assay [1] turned out to be 73.4%.

B11: VHH clone 2F5 (VHH)
VHH: B9 VHH with E6Q, V12A, A14T, R19I
notes: Includes myc and His tags
Turning to B11, the binding result in assay [2] was “binds”. In assay [7], this molecule showed an EC50 of 7.45 ng/mL. In addition, in assay [3], the “% of This Plot (R3 PE+)” value came out at 95.5% and the “Mean FL2-A (R3 gate)” value worked out at 9260. For the same molecule, the “% FACS positive” value in assay [1] stood at 72.7%. Moreover, the concentration giving a half-maximal response (EC50) in assay [5] was 0.47 nM. Further, in assay [6], the “% binding at 1.4 ng/ml” value was found to be 4.6%, the “% binding at 4.1 ng/ml” value stood at 24.2%, the “% binding at 12.3 ng/ml” value was found to be 59.3% and the “% binding at 37.0 ng/ml” value was 83.1%. Further, in assay [6], the “% binding at 111.1 ng/ml” value came out at 86%, the “% binding at 333.3 ng/ml” value was found to be 86.7%, the “% binding at 1000 ng/ml” value was 85.9% and the “% binding at 3000 ng/ml” value is 86.4%.

B12: VHH clone 2H10 (VHH)
VHH: B9 VHH with S7F
notes: includes myc and His tags; also called 1G3
In the case of B12, the “% FACS positive” value in assay [1] turned out to be 85.9%.

B13: VHH clone 2A11 (VHH)
VHH: B9 VHH with A14P, Q113L
notes: Includes myc and His tags
With B13, the “% FACS positive” value in assay [1] worked out at 86.3%.

B14: VHH clone 1G6 (VHH)
VHH: B9 VHH with E6Q
notes: includes myc and His tags; also called 2G11; 2H2
As to B14, in assay [2], the binding result is “binds”. The molecule also displayed an EC50 in assay [7] of 7.72 ng/mL. Moreover, in assay [3], the “% of This Plot (R3 PE+)” value was 95.6% and the “Mean FL2-A (R3 gate)” value came to 9310. In assay [5], the EC50 amounted to 0.49 nM. Besides, in assay [6], the “% binding at 1.4 ng/ml” value was 6%, the “% binding at 4.1 ng/ml” value stood at 26.8%, the “% binding at 12.3 ng/ml” value was found to be 56.7% and the “% binding at 37.0 ng/ml” value is 83.1%. Besides, in assay [6], the “% binding at 111.1 ng/ml” value came to 87.7%, the “% binding at 333.3 ng/ml” value came out at 88.2%, the “% binding at 1000 ng/ml” value was found to be 88.6% and the “% binding at 3000 ng/ml” value turned out to be 88.9%.
